T1: human claudin-3 (Homo sapiens, UniProt O15551)
T1 sequence (O15551 1-220): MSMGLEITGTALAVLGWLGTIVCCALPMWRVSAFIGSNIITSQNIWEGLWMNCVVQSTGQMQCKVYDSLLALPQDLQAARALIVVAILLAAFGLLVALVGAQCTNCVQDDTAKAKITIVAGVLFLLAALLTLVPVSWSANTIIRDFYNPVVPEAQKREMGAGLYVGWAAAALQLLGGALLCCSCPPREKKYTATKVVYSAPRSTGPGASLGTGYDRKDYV

T2: human claudin-4 (Homo sapiens, UniProt O14493)
T2 sequence (O14493 1-209): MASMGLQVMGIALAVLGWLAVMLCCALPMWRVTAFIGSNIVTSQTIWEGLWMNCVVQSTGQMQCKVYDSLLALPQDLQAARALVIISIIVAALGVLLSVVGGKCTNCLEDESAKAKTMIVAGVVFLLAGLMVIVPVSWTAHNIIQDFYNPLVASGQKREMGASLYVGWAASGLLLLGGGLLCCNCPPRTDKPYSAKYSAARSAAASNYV

T3: human claudin-9 (Homo sapiens, UniProt O95484)
T3 sequence (O95484 1-217): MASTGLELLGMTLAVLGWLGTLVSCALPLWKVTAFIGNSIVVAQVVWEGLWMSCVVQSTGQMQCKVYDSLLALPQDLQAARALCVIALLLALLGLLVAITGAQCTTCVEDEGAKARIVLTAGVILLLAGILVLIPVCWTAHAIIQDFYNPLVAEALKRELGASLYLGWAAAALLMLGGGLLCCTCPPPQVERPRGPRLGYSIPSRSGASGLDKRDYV

T4: human claudin-4 (human, UniProt O14493 1-209, limits assumed)
T4 sequence (looked up): T2 sequence (O14493 1-209)

T5: human claudin-3 (human, UniProt O15551 1-220, limits assumed)
T5 sequence (looked up): T1 sequence (O15551 1-220)

B1: C1C2-NP (C1C2 peptide conjugated to PEG diacid coated ultrasmall Gd nanoparticles) (peptide)
peptide: Ac-SSVSQSTGQIQSKVDSLLNLNSTQATR-NH2
modifications: not fully specified; also: conjugated by EDC-NHS chemistry to PEG diacid on Gd oxide nanoparticle surface (19 peptides per 3.5 nm particle)
notes: The protein part is the C1C2 peptide; the core is not a protein; also called C1C2-NPs; C1C2 NPs

Columns and labels:
human claudin-3 [1] = molecular target: T1, human claudin-3; test: Microscale thermophoresis (MST) binding; details: 0.1% beta-UDM buffer
Method: (§1) Human claudin-1 was expressed and purified as reported previously (Vecchio & Stroud, 2019, PNAS USA, 116:17817-24). MST measurements were performed using a Monolith instrument (NanoTemper Technologies). For experiments with human claudin-1, the assay buffer contained 10 mM Tris HCl, pH 8.0, 100 mM NaCl, 4% glycerol, and 0.04% n-Dodecyl-β-D-Maltopyranoside (β-DDM). NPs and peptides were labeled with AF647 prior to MST analysis as described above. For the binding experiments, the concentration of human claudin-1 was varied from 2.2-73,500 nM and the AF647-labeled C1C2-NP was fixed at 70 nM, while the AF647 labeled NPs and AF647 labeled C1C2 peptide were fixed at 1 and 0.3 μM, respectively. Binding of the AF647 labeled C1C2-NP to human claudin-3, -4, and -9 were tested using 0.4-14000 nM, 0.8-28000 nM, and 0.6-20000 nM, respectively; with the AF647 labeled C1C2-NP fixed at 70 nM. This assay buffer was similar, except β-DDM was replaced with 0.1% n-Undecyl-β-D-Maltopyranoside (beta-UDM). In order to check non-specific binding of β-DDM micelles to the AF647 labeled C1C2-NP, the concentration of beta-DDM was varied from 0.03-900 μM and the concentration of the AF647-labeled C1C2-NP was fixed at 1 μM. A similar experiment was performed wherein the concentration of beta-UDM was varied from 0.3-10,000 μM and the concentration of AF647-labeled control NP was fixed at 1 μM. The non-specific binding of human claudins 4 and 9 to the NP was examined by varying the concentrations of human claudins 4 and 9 from 0.7-20,100 nM and 0.8-31,100 nM, respectively. The human claudin sub-dilutions were mixed with the NPs or peptides and loaded in standard monolith NT.115 capillary tubes for measurement. All experiments were conducted at 23° C. using the nano-red channel of the Monolith instrument and the data were analyzed by using either Monolith analysis software or Graph Pad Prism, version 9 (Graph Pad Software, San Diego, California).

human claudin-4 [2] = molecular target: T2, human claudin-4; test: Microscale thermophoresis (MST) binding; details: 0.1% beta-UDM buffer
Method: as §1

human claudin-9 = molecular target: T3, human claudin-9; test: Microscale thermophoresis (MST) binding; details: 0.1% beta-UDM buffer
Method: as §1

[3] = MST check of non-specific binding to detergent micelles; details: NP fixed at 1 μM, β-DDM varied; data not shown
Method: as §1, with “In order to check non-specific binding of β-DDM micelles to the AF647 labeled C1C2-NP, the concentration of beta-DDM was varied from 0.03-900 μM and the concentration of the AF647-labeled C1C2-NP was fixed at 1 μM. A similar experiment was performed wherein the concentration of beta-UDM was varied from 0.3-10,000 μM and the concentration of AF647-labeled control NP was fixed at 1 μM. The non-specific binding of human claudins 4 and 9 to the NP was examined by varying the concentrations of human claudins 4 and 9 from 0.7-20,100 nM and 0.8-31,100 nM, respectively. The human claudin sub-dilutions were mixed with the NPs or peptides and loaded in standard monolith NT.115 capillary tubes for measurement.” left out

human claudin-4 [4] = molecular target: T4, human claudin-4; test: MST, sigmoidal dose-response fit (GraphPad Prism) of the FIG. 10A data; confidence interval undefined [panel B]
Method: (§2) FIG. 10A is a graph showing binding of human claudins 3, 4 and 9 to C1C2-NPs using microscale thermophoresis. […] FIG. 10C is a graph showing the binding of human claudins 4 and 9 to control NPs monitored using microscale thermophoresis. […] Data fitting for human claudins 3, 4 and 9 were performed using Graph Pad Prism.
(§3) Human claudin-1 was expressed and purified as reported previously (Vecchio & Stroud, 2019, PNAS USA, 116:17817-24). MST measurements were performed using a Monolith instrument (NanoTemper Technologies). For experiments with human claudin-1, the assay buffer contained 10 mM Tris HCl, pH 8.0, 100 mM NaCl, 4% glycerol, and 0.04% n-Dodecyl-β-D-Maltopyranoside (β-DDM). NPs and peptides were labeled with AF647 prior to MST analysis as described above. For the binding experiments, the concentration of human claudin-1 was varied from 2.2-73,500 nM and the AF647-labeled C1C2-NP was fixed at 70 nM, while the AF647 labeled NPs and AF647 labeled C1C2 peptide were fixed at 1 and 0.3 μM, respectively. Binding of the AF647 labeled C1C2-NP to human claudin-3, -4, and -9 were tested using 0.4-14000 nM, 0.8-28000 nM, and 0.6-20000 nM, respectively; with the AF647 labeled C1C2-NP fixed at 70 nM. This assay buffer was similar, except β-DDM was replaced with 0.1% n-Undecyl-β-D-Maltopyranoside (beta-UDM).

human claudin-3 [5] = molecular target: T5, human claudin-3; test: MST, sigmoidal dose-response fit (GraphPad Prism) of the FIG. 10A data; fit without amplitude, confidence interval undefined [panel B]
Method: as §2, §3

Molecule	Binding to human claudin 3 (in words) (human claudin-3 [1]; listed as AF647-C1C2-NP)	Binding to human claudin 3 (in words) (human claudin-3 [1]; listed as C1C2-NPs)	Binding to human claudin 4 (in words) (human claudin-4 [2]; listed as AF647-C1C2-NP)	Binding to human claudin 4 (in words) (human claudin-4 [2]; listed as C1C2-NPs)	Binding to human claudin 9 (in words) (human claudin-9; listed as AF647-C1C2-NP)	Binding to human claudin 9 (in words) (human claudin-9; listed as C1C2-NPs)	Non-specific binding to β-DDM micelle [3]	LogEC50 (human claudin-4 [4])	LogEC50 (human claudin-3 [5])
C1C2-NP: PEG diacid coated ultrasmall Gd NP conjugated with C1C2 peptide SSVSQSTGQIQSKVDSLLNLNSTQATR (SEQ ID NO: 6); claudin-1 targeted (Ac-SSVSQSTGQIQSKVDSLLNLNSTQATR-NH2; also: conjugated to PEG diacid coated ultrasmall Gd nanoparticle)	does not show any binding	undefined 95% confidence intervals	weak	undefined 95% confidence intervals	weak	the data did not fit	No significant binding		
B1								-4.7	-7.05
